# Results as given in publication PMC3280929, “Engineered Trx2p industrial yeast strain protects glycolysis and fermentation proteins from oxidative carbonylation during biomass propagation” (Microbial Cell Factories, 2012).
# Several values for one entry are separate records, joined by “and”; a condition that tells them apart may be missing. Equal values may be shown once.
# B1: alcohol dehydrogenase I (Adh1p) (enzyme, S. cerevisiae (endogenous in strain T73), UniProt P00330 1-348, looked up)
# chain: MSIPETQKGVIFYESHGKLEYKDIPVPKPKANELLINVKYSGVCHTDLHAWHGDWPLPVKLPLVGGHEGAGVVVGMGENVKGWKIGDYAGIKWLNGSCMACEYCELGNESNCPHADLSGYTHDGSFQQYATADAVQAAHIPQGTDLAQVAPILCAGITVYKALKSANLMAGHWVAISGAAGGLGSLAVQYAKAMGYRVLGIDGGEGKEELFRSIGGEVFIDFTKEKDIVGAVLKATDGGAHGVINVSVSEAAIEASTRYVRANGTTVLVGMPAGAKCCSDVFNQVVKSISIVGSYVGNRADTREALDFFARGLVKSPIKVVGLSTLPEIYEKMEKGQIVGRYVVDTSK
# modifications: oxidative carbonylation of the dimer, tetramer and higher bands (residues not stated)
# notes: Alcohol dehydrogenase I (Adh1p) of Saccharomyces cerevisiae, subunit of approximately 37 kDa; Endogenous protein of an industrial wine strain; source: endogenous, S. cerevisiae wine strain T73 (and TTRX2), crude cell extracts
# Target: the molecule itself
# Test: SDS-PAGE and anti-Adh1p western blot of SDS-resistant oligomers; crude extracts of T73 cells (dehydrated, grown 5 h in YPGF, or fresh with or without 5 mM glyoxal), 10% SDS-polyacrylamide gel under denaturing conditions, polyclonal anti-Adh1p
protein,measurement,value
B1,stoichiometry N,2 and 4
